Experimental findings from IntAct's records for PubMed 29039417 are described below.

B1: BBSome complex member BBS2 (Homo sapiens), Q9BXC9 (parent)
chain: MLLPVFTLKLRHKISPRMVAIGRYDGTHPCLAAATQTGKVFIHNPHTRNQHVSASRVFQSPLESDVSLLSINQAVSCLTAGVLNPELGYDALLVGTQTNLLAYDVYNNSDLFYREVADGANAIVLGTLGDISSPLAIIGGNCALQGFNHEGSDLFWTVTGDNVNSLALCDFDGDGKKELLVGSEDFDIRVFKEDEIVAEMTETEIVTSLCPMYGSRFGYALSNGTVGVYDKTSRYWRIKSKNHAMSIHAFDLNSDGVNELITGWSNGKVDARSDRTGEVIFKDNFSSAIAGVVEGDYRMDGHIQLICCSVDGEIRGYLPGTAEMRGNLMDTSAEQDLIRELSQKKQNLLLELRNYEENAKAELASPLNEADGHRGIIPANTRLHTTLSVSLGNETQTAHTELRISTSNDTIIRAVLIFAEGIFTGESHVVHPSIHNLSSSICIPIVPPKDVPVDLHLKAFVGYRSSTQFHVFESTRQLPRFSMYALTSLDPASEPISYVNFTIAERAQRVVVWLGQNFLLPEDTHIQNAPFQVCFTSLRNGGHLHIKIKLSGEITINTDDIDLAGDIIQSMASFFAIEDLQVEADFPVYFEELRKVLVKVDEYHSVHQKLSADMADHSNLIRSLLVGAEDARLMRDMKTMKSRYMELYDLNRDLLNGYKIRCNNHTELLGNLKAVNQAIQRAGRLRVGKPKNQVITACRDAIRSNNINTLFKIMRVGTASS
partner: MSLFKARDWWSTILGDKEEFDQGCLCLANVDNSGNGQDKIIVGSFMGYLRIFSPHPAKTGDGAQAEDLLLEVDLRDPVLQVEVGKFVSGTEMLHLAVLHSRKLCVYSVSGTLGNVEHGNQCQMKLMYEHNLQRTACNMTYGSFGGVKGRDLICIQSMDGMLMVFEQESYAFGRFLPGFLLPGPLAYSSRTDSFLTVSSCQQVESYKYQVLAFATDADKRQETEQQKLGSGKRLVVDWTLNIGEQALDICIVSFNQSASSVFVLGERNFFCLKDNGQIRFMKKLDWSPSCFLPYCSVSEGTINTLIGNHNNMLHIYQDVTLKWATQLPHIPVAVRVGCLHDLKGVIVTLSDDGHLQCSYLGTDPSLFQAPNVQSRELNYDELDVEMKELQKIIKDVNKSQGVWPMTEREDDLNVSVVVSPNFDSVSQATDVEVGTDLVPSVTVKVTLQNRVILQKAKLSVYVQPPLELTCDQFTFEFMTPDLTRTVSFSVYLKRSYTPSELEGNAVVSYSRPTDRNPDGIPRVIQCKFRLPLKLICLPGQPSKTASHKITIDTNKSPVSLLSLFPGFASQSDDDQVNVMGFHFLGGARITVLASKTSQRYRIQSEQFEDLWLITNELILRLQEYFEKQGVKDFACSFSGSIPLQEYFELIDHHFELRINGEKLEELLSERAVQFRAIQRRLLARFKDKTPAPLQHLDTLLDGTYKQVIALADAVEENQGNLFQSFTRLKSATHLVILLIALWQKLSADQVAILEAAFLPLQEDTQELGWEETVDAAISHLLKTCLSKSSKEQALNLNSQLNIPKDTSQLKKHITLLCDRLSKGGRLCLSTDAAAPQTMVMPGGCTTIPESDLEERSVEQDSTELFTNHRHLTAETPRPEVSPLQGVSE

The variants in this experiment derive from B1. Conditions: with pthb1_human BBS9, Q3SYG4.
With F574A, the “effect of a mutation on the interaction” value is on record as “with no effect”. With F574E, the “effect of a mutation on the interaction” value was “with no effect”. On to P366K, for which the “effect of a mutation on the interaction” value is listed as “with no effect”. For the variant S332K, the “effect of a mutation on the interaction” value is “with no effect”. Take L520E: the “effect of a mutation on the interaction” value is “with no effect”. As for T502A, the “effect of a mutation on the interaction” value is on record as “with no effect”. For the variant T502K, the “effect of a mutation on the interaction” value is “with no effect”. As for R686A, the “effect of a mutation on the interaction” value is “with no effect”. For S573K, the “effect of a mutation on the interaction” value is reported as “with no effect”. As to W513K, the “effect of a mutation on the interaction” value was “disrupting interaction strength”. N557E: the “effect of a mutation on the interaction” value is on record as “with no effect”. On to Q532A, for which the “effect of a mutation on the interaction” value was “with no effect”. Consider Q532E, for which the “effect of a mutation on the interaction” value is given as “with no effect”.

T487K: the “effect of a mutation on the interaction” value was “with no effect”. The result for T487M reads “disrupting interaction strength”; that for K609E, “with no effect”.

I434K: the “effect of a mutation on the interaction” value is reported as “with no effect”. On to H543K, for which the “effect of a mutation on the interaction” value is “with no effect”. For D601E, the “effect of a mutation on the interaction” value was “with no effect”.

E667K: the “effect of a mutation on the interaction” value is listed as “with no effect”. As for E629K, the “effect of a mutation on the interaction” value was “with no effect”. As to S623A, the “effect of a mutation on the interaction” value is reported as “with no effect”. With H607K the entry was “with no effect”. Regarding G375K, the “effect of a mutation on the interaction” value is “with no effect”.

Consider N358A, for which the “effect of a mutation on the interaction” value was “with no effect”. Consider T397A, for which the “effect of a mutation on the interaction” value is reported as “with no effect”. Take C698E: the “effect of a mutation on the interaction” value was “with no effect”.

Turning to C698K, the “effect of a mutation on the interaction” value was “with no effect”. The result for N656K reads “with no effect”; that for I377K, “with no effect”; that for E578K, “with no effect”. L672K: the “effect of a mutation on the interaction” value was “with no effect”. With L672E the entry was “with no effect”; with S365C, “disrupting interaction strength”. G372K: the “effect of a mutation on the interaction” value is reported as “with no effect”. As for G372E, the “effect of a mutation on the interaction” value is “with no effect”.

For the variant L610E, the “effect of a mutation on the interaction” value is “with no effect”.

On to L337K, for which the “effect of a mutation on the interaction” value is “with no effect”. Take D330E: the “effect of a mutation on the interaction” value was “with no effect”. K449R: the “effect of a mutation on the interaction” value is listed as “disrupting interaction strength”. In the case of V511A, the “effect of a mutation on the interaction” value was “with no effect”. Regarding H373K, the “effect of a mutation on the interaction” value was “with no effect”. Turning to H373E, the “effect of a mutation on the interaction” value was “with no effect”. For the variant L544E, the “effect of a mutation on the interaction” value was “disrupting interaction strength”. The result for L544K reads “with no effect”; that for R594K, “with no effect”; that for L625A, “with no effect”. Regarding R382A, the “effect of a mutation on the interaction” value was “disrupting interaction strength”. For the variant L593A, the “effect of a mutation on the interaction” value is given as “with no effect”. Turning to V588K, the “effect of a mutation on the interaction” value is “with no effect”. As for L387E, the “effect of a mutation on the interaction” value is recorded as “with no effect”.

On to F423A, for which the “effect of a mutation on the interaction” value was “with no effect”.

Consider A507E, for which the “effect of a mutation on the interaction” value was “with no effect”.

R480A: the “effect of a mutation on the interaction” value is “with no effect”. As to A414K, the “effect of a mutation on the interaction” value was “with no effect”. For D636E, the “effect of a mutation on the interaction” value is reported as “with no effect”.

Take D336E: the “effect of a mutation on the interaction” value is recorded as “with no effect”. Consider D336K, for which the “effect of a mutation on the interaction” value is listed as “with no effect”.

Consider S466E, for which the “effect of a mutation on the interaction” value is given as “disrupting interaction strength”. Take V512A: the “effect of a mutation on the interaction” value is recorded as “with no effect”.

As for A628K, the “effect of a mutation on the interaction” value is “with no effect”. For the variant S474E, the “effect of a mutation on the interaction” value is listed as “with no effect”. Regarding N327E, the “effect of a mutation on the interaction” value is given as “with no effect”.

For A398E, the “effect of a mutation on the interaction” value is reported as “with no effect”. Take D653K: the “effect of a mutation on the interaction” value is recorded as “with no effect”. Regarding L348K, the “effect of a mutation on the interaction” value is “with no effect”. With L348A, the “effect of a mutation on the interaction” value was “with no effect”. In the case of I554E, the “effect of a mutation on the interaction” value is listed as “with no effect”. For S551E, the “effect of a mutation on the interaction” value is reported as “with no effect”. Turning to A359E, the “effect of a mutation on the interaction” value is “with no effect”. Turning to A359K, the “effect of a mutation on the interaction” value is on record as “with no effect”. As for N671K, the “effect of a mutation on the interaction” value was “with no effect”. With P530E, the “effect of a mutation on the interaction” value is on record as “with no effect”. As to P530K, the “effect of a mutation on the interaction” value is recorded as “with no effect”. Regarding V430K, the “effect of a mutation on the interaction” value was “with no effect”. On to R681K, for which the “effect of a mutation on the interaction” value was “with no effect”. On to A678E, for which the “effect of a mutation on the interaction” value is “with no effect”. Consider N347A, for which the “effect of a mutation on the interaction” value was “with no effect”. Consider N619E, for which the “effect of a mutation on the interaction” value is recorded as “with no effect”. With L349A the entry was “with no effect”. L349E: the “effect of a mutation on the interaction” value is given as “with no effect”. As to N664K, the “effect of a mutation on the interaction” value is listed as “with no effect”.

In the case of N664E, the “effect of a mutation on the interaction” value is reported as “with no effect”.

With G717E, the “effect of a mutation on the interaction” value is given as “with no effect”.

Take Q343E: the “effect of a mutation on the interaction” value is on record as “with no effect”. With D585A, the “effect of a mutation on the interaction” value was “with no effect”.

Regarding K673A, the “effect of a mutation on the interaction” value is recorded as “with no effect”. Consider A379K, for which the “effect of a mutation on the interaction” value was “with no effect”. On to T696E, for which the “effect of a mutation on the interaction” value is listed as “with no effect”. With A492K the entry was “with no effect”.
